Molecular target: human somatostatin receptor 5 (SSTR5) (human) (UniProt P35346)
UniProt P35346, sequence (P35346 whole entry): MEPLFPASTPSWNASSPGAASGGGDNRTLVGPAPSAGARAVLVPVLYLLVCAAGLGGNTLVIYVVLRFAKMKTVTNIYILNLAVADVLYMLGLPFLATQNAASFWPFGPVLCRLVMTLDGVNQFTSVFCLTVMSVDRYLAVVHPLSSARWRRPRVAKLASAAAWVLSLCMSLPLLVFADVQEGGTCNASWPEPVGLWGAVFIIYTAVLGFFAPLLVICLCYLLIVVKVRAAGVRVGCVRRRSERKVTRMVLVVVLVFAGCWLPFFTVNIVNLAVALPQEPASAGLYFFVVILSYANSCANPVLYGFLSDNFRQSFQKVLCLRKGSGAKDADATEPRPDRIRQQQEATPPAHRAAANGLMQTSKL

In the case of “SRIF-14-Sed1 periplasmic display fusion (from UniProt P61278 103-116) (ligand)”, the autocrine GPCR activation by αPre-ligand-display fusion, DCyFIR mTq2 transcriptional reporter, relative to the Ccw14 fusion (% of the activity of the Ccw14 fusion) is reported as 30.
